Assay [1] addresses FLAG-tagged mouse Ang2 (mouse) (UniProt O35608). Nature of the assay: competition ELISA: FLAG-mAng2 binding to coated mTie2-Fc, residual mAng2 detected with anti-FLAG-HRP.
The target of assay [2] is FLAG-tagged human Ang2 (human) (UniProt O15123). The experiment in a line: competition ELISA: FLAG-hAng2 binding to coated hTie2-Fc, residual hAng2 detected with anti-FLAG-HRP.
Assay [3] has as its target FLAG-tagged mouse Ang2 (mouse) (UniProt O35608). Nature of the assay: competition ELISA: blocking of FLAG-mAng2 binding to coated mTie2-Fc. (An ELISA detects its analyte on a solid surface through an enzyme-linked reagent.)
For assay [4], the target named is FLAG-tagged human Ang2 (human) (UniProt O15123). The experiment in a line: competition ELISA: FLAG-hAng2 binding to coated hTie2-Fc, residual hAng2 detected with anti-FLAG-HRP. The source holds these as a separate data set.
Assay [5] shares this target. The experiment in a line: competition ELISA: blocking of FLAG-hAng2 binding to coated hTie2-Fc.
For assay [6], the target named is FLAG-tagged mouse Ang2 (mouse) (UniProt O35608). Nature of the assay: competition ELISA: FLAG-mAng2 binding to coated mTie2-Fc, residual mAng2 detected with anti-FLAG-HRP. The source holds these as a separate data set.
Chain of FLAG-tagged mouse Ang2 (mouse) (O35608 19-496 limits assumed): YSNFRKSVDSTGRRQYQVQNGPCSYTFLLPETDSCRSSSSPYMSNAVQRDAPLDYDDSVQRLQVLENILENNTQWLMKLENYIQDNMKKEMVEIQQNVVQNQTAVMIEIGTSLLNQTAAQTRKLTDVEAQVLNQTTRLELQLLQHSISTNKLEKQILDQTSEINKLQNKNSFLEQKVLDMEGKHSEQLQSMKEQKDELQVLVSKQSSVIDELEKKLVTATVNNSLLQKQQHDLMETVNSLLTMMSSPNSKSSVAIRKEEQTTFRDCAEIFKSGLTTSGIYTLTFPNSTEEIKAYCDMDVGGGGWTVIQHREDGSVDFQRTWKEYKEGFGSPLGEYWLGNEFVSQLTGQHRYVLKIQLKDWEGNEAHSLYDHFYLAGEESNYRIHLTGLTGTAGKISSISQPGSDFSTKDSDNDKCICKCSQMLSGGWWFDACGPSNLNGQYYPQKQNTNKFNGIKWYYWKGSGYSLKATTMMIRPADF
In assay [7] the target is FLAG-tagged cynomolgus Ang2 (cynomolgus). Nature of the assay: competition ELISA: blocking of FLAG-cAng2 binding to coated cTie2-Fc.
Chain of FLAG-tagged cynomolgus Ang2 (cynomolgus) (O15123 other isoform, or with tags, fused parts or gaps limits assumed): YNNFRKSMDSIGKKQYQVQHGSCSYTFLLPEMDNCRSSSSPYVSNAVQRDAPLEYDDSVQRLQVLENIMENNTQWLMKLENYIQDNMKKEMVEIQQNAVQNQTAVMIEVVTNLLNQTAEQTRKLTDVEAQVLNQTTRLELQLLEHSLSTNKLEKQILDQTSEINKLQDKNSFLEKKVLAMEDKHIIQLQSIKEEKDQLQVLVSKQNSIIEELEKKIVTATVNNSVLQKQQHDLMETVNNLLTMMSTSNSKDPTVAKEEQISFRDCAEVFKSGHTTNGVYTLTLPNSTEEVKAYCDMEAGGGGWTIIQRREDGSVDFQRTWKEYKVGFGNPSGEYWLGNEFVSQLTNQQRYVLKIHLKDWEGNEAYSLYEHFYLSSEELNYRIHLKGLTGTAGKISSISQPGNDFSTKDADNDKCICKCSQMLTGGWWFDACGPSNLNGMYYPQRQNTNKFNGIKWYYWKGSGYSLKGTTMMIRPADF
The target of assay [8] is FLAG-tagged human Ang2 (human) (UniProt O15123). Nature of the assay: competition ELISA: FLAG-hAng2 binding to coated hTie2-Fc, residual hAng2 detected with anti-FLAG-HRP. The source holds these as a separate data set.
Assay [9] shares this target. The description is as above. This is another data set of the same source.
The target is the same in assay [10]. The experiment in a line: competition ELISA: blocking of FLAG-hAng2 binding to coated hTie2-Fc. The source holds these as a separate data set.
For assay [11], the target named is FLAG-tagged cynomolgus Ang2 (cynomolgus). The experiment in a line: competition ELISA: FLAG-cAng2 binding to coated cTie2-Fc, residual cAng2 detected with anti-FLAG-HRP.
Assay [12] concerns the target FLAG-tagged human Ang2 (human) (UniProt O15123). Nature of the assay: competition ELISA: blocking of FLAG-hAng2 binding to coated hTie2-Fc. The source holds these as a separate data set.
For assay [13] the target is unchanged. The description is as above. The source holds these as a separate data set.
Assay [14] deals with FLAG-tagged mouse Ang2 (mouse) (UniProt O35608). Nature of the assay: competition ELISA: FLAG-mAng2 binding to coated mTie2-Fc, residual mAng2 detected with anti-FLAG-HRP. This is another data set of the same source.

Chain of FLAG-tagged human Ang2 (human) (O15123 19-496): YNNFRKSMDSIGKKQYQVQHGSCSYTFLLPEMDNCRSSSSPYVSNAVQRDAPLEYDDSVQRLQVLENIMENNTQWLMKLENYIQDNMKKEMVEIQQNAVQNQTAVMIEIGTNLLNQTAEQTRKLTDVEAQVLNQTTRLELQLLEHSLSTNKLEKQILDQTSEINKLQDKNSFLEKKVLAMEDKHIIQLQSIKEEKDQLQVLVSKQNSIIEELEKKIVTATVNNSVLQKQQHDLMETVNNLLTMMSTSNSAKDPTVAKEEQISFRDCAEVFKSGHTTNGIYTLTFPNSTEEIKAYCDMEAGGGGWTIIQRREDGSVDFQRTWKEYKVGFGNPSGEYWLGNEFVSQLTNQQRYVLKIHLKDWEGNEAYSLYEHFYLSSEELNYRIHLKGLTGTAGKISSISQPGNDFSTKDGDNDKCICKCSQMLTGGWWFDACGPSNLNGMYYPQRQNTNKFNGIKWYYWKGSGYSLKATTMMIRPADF

With AMG386 (Fc fusion), the IC50 (read off the curve) in assay [1] was determined as 4 pM; in assay [2], 3 pM; in [3], 6 pM; in assay [4], 5 pM; in assay [5], 3 pM; in assay [6], 3 pM. The IC50 (read off the curve) was 1 pM in assay [7]; 6 pM in [8]; 2 pM in [9]; 0.5 pM in assay [10]; 10 pM in assay [11]; 4 pM in assay [12]. For the same substance, the values for the IC50 (read off the curve) in [13] and in [14] were 5 pM and 7 pM, respectively.
